{
  "source": "patent US20250134889",
  "molecular_target": "purified, recombinant human FMRP protein",
  "data": [
    {"protein": "inositol-requiring enzyme-1 (IRE1), wild type, expressed from plasmid in HEK293T cells (protein) IFGSTSTVTLPETLLFVSTLDGSLHAVSKRTGSIKWTLKEDPVLQVPTHVEEPAFLPDPNDGSLYTLGSKNNEGLTKLPFTIPELVQASPCRSSDGILYMGKKQDIWYVIDLLTGEKQQTLSSAFADSLCPSTSLLYLGRTEYTITMYDTKTRELRWNATYFDYAASLPEDDVDYKMSHFVSNGDGLVVTVDSESGDVLWIQNYASPVVAFYVWQREGLRKVMHINVAVETLRYLTFMSGEVGRITKWKYPFPKETEAKSKLTPTLYVGKYSTSLYASPSMVHEGVAVVPRGSTLPLLEGPQTDGVTIGDKGECVITPSTDVKFDPGLKSKNKLNYLRNYWLLIGHHETPLSASTKMLERFPNNLPKHRENVIPADSEKKSFEEVINLVDQTSENAPTTVSRDVEEKPAHAPARPEAPVDSMLKDMATIILSTFLLIGWVAFIITYPLSMHQQQQLQHQQFQKELEKIQLLQQQQQQLPFHPPGDTAQDGELLDTSGPYSESSGTSSPSTSPRASNHSLCSGSSASKAGSSPSLEQDDGDEETSVVIVGKISFCPKDVLGHGAEGTIVYRGMFDNRDVAVKRILPECFSFADREVQLLRESDEHPNVIRYFCTEKDRQFQYIAIELCAATLQEYVEQKDFAHLGLEPITLLQQTTSGLAHLHSLNIVHRDLKPHNILISMPNAHGKIKAMISDFGLCKKLAVGRHSFSRRSGVPGTEGWIAPEMLSEDCKENPTYTVDIFSAGCVFYYVISEGSHPFGKSLQRQANILLGACSLDCLHPEKHEDVIARELIEKMIAMDPQKRPSAKHVLKHPFFWSLEKQLQFFQDVSDRIEKESLDGPIVKQLERGGRAVVKMDWRENITVPLQTDLRKFRTYKGGSVRDLLRAMRNKKHHYRELPAEVRETLGSLPDDFVCYFTSRFPHLLAHTYRAMELCSHERLFQPYYFHEPPEPQPPVTPDAL", "values": [
      {"measurement": "thio-phosphorylation in an in vitro kinase reaction (ATP-γ-S; western blot with anti-thiophosphate ester antibody)", "value": "In the reaction containing IRE1-WT, both proteins were thio-phosphorylated"}
    ]},
    {"protein": "kinase dead (KD) mutant IRE1 (K599A), expressed from plasmid in HEK293T cells (protein) IFGSTSTVTLPETLLFVSTLDGSLHAVSKRTGSIKWTLKEDPVLQVPTHVEEPAFLPDPNDGSLYTLGSKNNEGLTKLPFTIPELVQASPCRSSDGILYMGKKQDIWYVIDLLTGEKQQTLSSAFADSLCPSTSLLYLGRTEYTITMYDTKTRELRWNATYFDYAASLPEDDVDYKMSHFVSNGDGLVVTVDSESGDVLWIQNYASPVVAFYVWQREGLRKVMHINVAVETLRYLTFMSGEVGRITKWKYPFPKETEAKSKLTPTLYVGKYSTSLYASPSMVHEGVAVVPRGSTLPLLEGPQTDGVTIGDKGECVITPSTDVKFDPGLKSKNKLNYLRNYWLLIGHHETPLSASTKMLERFPNNLPKHRENVIPADSEKKSFEEVINLVDQTSENAPTTVSRDVEEKPAHAPARPEAPVDSMLKDMATIILSTFLLIGWVAFIITYPLSMHQQQQLQHQQFQKELEKIQLLQQQQQQLPFHPPGDTAQDGELLDTSGPYSESSGTSSPSTSPRASNHSLCSGSSASKAGSSPSLEQDDGDEETSVVIVGKISFCPKDVLGHGAEGTIVYRGMFDNRDVAVARILPECFSFADREVQLLRESDEHPNVIRYFCTEKDRQFQYIAIELCAATLQEYVEQKDFAHLGLEPITLLQQTTSGLAHLHSLNIVHRDLKPHNILISMPNAHGKIKAMISDFGLCKKLAVGRHSFSRRSGVPGTEGWIAPEMLSEDCKENPTYTVDIFSAGCVFYYVISEGSHPFGKSLQRQANILLGACSLDCLHPEKHEDVIARELIEKMIAMDPQKRPSAKHVLKHPFFWSLEKQLQFFQDVSDRIEKESLDGPIVKQLERGGRAVVKMDWRENITVPLQTDLRKFRTYKGGSVRDLLRAMRNKKHHYRELPAEVRETLGSLPDDFVCYFTSRFPHLLAHTYRAMELCSHERLFQPYYFHEPPEPQPPVTPDAL", "values": [
      {"measurement": "thio-phosphorylation in an in vitro kinase reaction (ATP-γ-S; western blot with anti-thiophosphate ester antibody)", "value": "but not in the reaction containing the IRE1-KD mutant"}
    ]},
    {"protein": "purified, recombinant human IRE1-kinase/RNase domains (amino acids 468-977) (protein) MHQQQQLQHQQFQKELEKIQLLQQQQQQLPFHPPGDTAQDGELLDTSGPYSESSGTSSPSTSPRASNHSLCSGSSASKAGSSPSLEQDDGDEETSVVIVGKISFCPKDVLGHGAEGTIVYRGMFDNRDVAVKRILPECFSFADREVQLLRESDEHPNVIRYFCTEKDRQFQYIAIELCAATLQEYVEQKDFAHLGLEPITLLQQTTSGLAHLHSLNIVHRDLKPHNILISMPNAHGKIKAMISDFGLCKKLAVGRHSFSRRSGVPGTEGWIAPEMLSEDCKENPTYTVDIFSAGCVFYYVISEGSHPFGKSLQRQANILLGACSLDCLHPEKHEDVIARELIEKMIAMDPQKRPSAKHVLKHPFFWSLEKQLQFFQDVSDRIEKESLDGPIVKQLERGGRAVVKMDWRENITVPLQTDLRKFRTYKGGSVRDLLRAMRNKKHHYRELPAEVRETLGSLPDDFVCYFTSRFPHLLAHTYRAMELCSHERLFQPYYFHEPPEPQPPVTPDAL", "values": [
      {"measurement": "IRE1-induced phosphorylation sites on FMRP (LC-MS/MS)", "value": "eight IRE1-induced phosphorylation sites on FMRP at serine (S362, S494, S497, S500, S504) and threonine (T502, T592, T594)"},
      {"measurement": "phosphorylation in an in vitro kinase reaction of purified proteins (western blot for ThioP; LC-MS/MS)", "value": "Both IRE1 and FMRP were phosphorylated in this reaction in an AMG-18-sensitive manner"}
    ]}
  ]
}
